Results from patent US20020160516A1, “Episomal expression vector for human gene therapy and expression system for production of proteins” (priority 1993, published 2002).
Converted amounts (≈) assume the structure as drawn.

T1: p107 (Homo sapiens, UniProt P28749)
T1 sequence (P28749 1-1068): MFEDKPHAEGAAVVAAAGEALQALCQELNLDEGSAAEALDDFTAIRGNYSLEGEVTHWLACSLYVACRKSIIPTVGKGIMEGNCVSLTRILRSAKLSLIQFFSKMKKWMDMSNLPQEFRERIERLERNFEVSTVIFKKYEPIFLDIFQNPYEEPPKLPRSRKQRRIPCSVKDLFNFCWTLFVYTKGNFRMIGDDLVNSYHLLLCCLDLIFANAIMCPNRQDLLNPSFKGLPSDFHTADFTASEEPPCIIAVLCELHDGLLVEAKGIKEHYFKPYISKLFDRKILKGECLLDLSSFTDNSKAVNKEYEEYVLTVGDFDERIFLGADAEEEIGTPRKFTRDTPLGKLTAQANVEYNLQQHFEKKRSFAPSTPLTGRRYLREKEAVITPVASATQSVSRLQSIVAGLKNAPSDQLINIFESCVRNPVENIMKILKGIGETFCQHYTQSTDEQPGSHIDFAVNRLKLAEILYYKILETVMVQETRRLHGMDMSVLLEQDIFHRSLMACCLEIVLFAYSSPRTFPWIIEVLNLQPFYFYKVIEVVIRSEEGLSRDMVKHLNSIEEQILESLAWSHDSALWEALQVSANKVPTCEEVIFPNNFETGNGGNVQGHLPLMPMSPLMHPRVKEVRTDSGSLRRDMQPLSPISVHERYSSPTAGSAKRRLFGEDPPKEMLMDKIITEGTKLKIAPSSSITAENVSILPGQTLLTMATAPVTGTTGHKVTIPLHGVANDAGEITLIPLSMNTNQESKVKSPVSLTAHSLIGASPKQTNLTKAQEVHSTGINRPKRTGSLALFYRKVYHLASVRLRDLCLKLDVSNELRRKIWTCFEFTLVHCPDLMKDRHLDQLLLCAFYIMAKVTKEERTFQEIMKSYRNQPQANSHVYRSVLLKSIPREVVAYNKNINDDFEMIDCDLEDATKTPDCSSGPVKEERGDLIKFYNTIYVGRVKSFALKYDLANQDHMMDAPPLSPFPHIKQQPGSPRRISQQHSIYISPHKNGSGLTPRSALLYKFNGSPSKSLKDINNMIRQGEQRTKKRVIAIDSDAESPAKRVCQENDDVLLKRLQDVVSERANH

T2: human RB (Homo sapiens, UniProt P06400)
T2 sequence (P06400 1-928): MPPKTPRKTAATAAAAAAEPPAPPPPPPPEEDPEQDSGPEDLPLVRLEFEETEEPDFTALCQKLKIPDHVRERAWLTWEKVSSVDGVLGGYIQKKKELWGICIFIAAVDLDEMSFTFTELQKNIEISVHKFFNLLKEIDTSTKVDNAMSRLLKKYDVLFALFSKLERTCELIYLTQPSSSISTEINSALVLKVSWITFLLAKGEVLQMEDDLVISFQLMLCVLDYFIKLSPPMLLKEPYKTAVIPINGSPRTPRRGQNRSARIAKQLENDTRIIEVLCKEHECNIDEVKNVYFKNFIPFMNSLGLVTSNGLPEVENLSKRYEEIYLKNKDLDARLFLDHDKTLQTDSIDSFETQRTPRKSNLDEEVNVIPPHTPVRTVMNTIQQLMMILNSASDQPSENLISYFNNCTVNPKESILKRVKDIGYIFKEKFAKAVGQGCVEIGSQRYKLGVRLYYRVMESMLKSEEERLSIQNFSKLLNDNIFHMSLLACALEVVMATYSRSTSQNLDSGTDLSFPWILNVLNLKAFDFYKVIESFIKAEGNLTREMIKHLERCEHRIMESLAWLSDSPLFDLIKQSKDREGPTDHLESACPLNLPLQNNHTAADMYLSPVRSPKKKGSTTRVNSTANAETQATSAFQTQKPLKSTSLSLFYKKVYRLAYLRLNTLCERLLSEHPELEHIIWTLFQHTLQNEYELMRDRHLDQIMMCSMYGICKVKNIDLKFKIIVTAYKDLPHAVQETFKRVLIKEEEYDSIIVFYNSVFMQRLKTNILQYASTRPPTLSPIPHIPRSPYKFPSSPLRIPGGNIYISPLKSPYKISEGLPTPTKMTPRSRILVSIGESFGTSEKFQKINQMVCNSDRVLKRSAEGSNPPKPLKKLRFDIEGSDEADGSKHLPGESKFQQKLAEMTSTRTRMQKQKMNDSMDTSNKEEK


What was measured:
[1] = test system: 107/402-T expression in HT-1376 tet-off clone; assay: Doxycycline control of 107/402-T expression in HT-1376 tet-off clone (Western blot); assay type: cell-based; details: Homo sapiens, 96 h, Western blot 4 days after exposure, read-out: half-maximal inhibitory concentration for 107/402-T expression
Excerpt: To prepare a human cell line in which expression of 107/402-T would be under control of doxycycline, HT-1376 human bladder carcinoma cells were sequentially transfected with three plasmid constructs: (a) pTET-OFF, which encodes the tetracycline-controlled transcriptional transactivator (tTA) under control of the CMV immediate-early promoter and the neomycin resistance gene under control of the SV40 early promoter, (b) pTRE.107/402-T, which encodes 107/402-T under control of the CMV minimal promoter and contains the tetracycline operon (binding site of tTA just upstream of the CMV minimal promoter), and (c) pCMVhygro, which encodes the hygromycin resistance gene under control of the CMV promoter. HT-1376 cells were first transfected with pTET-OFF, and neomycin resistant clones of stable transfectants were characterized by transiently transfecting clones with pTRE.luciferase in the presence or absence of doxycycline. Clones which yielded significant luciferase activity only in the absence of doxycycline (but no detectable luciferase activity in the presence of doxycycline) were then co-transfected with pTRE.107/402-T and pCMVhygro. Again, single cell clones of stable transfectants were screened for high basal levels of 107/402-T and complete turn-off of 107/402-T expression in the presence of doxycycline.
Steady-state levels of 107/402-T are achieved by 3 days. […]

p107 = target: T1, p107; assay type: binding
T24 cell line = assay: Soft agar cloning of T24 clones expressing T antigens; details: T24 single cell clones expressing T antigen (SV-T clone A7, 402-T clone G1); ± se
Excerpt: Transformed cells were trypsinized and then passed through a 30-micron nylon filter (Tetko, Lancaster, N.Y.) to achieve a single cell suspension. The bottom layer of agar consisted of low glucose DMEM supplemented with 10% fetal calf serum and 0.6% Seaplaque agarose (FMC BioProducts, Rockland, Me.). The top layer contained serial dilutions of cells ranging between 10^3 and 10^6 in low-glucose DMEM supplemented with 10% fetal calf serum and 0.3% Seaplaque agarose.

human RB = target: T2, human RB; assay type: binding
p53 = p53 (Homo sapiens, UniProt P04637); assay type: binding
Chain of p53 (P04637 whole entry): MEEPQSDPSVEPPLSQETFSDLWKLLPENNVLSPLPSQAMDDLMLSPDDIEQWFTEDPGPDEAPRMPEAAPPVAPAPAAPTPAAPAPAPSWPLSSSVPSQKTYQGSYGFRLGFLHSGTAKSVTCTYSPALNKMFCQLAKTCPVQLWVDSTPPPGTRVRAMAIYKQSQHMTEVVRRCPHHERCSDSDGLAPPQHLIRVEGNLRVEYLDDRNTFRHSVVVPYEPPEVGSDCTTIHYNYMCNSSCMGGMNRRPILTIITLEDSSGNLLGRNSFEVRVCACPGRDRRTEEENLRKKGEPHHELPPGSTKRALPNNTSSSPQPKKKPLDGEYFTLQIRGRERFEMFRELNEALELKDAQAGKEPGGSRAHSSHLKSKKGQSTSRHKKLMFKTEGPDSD

| Molecule | IC50 [1] [ng/mL] | Observed signal compared to T, binding to p107 (p107) [%] | soft agar cloning efficiency (T24 cell line) | Observed signal compared to T, binding to RB (human RB) [%] | Observed signal compared to T, binding to p53 (p53) [%] |
| --- | --- | --- | --- | --- | --- |
| C[C@H]1c2cccc(O)c2C(=O)C2=C(O)[C@]3(O)C(=O)C(C(N)=O)=C(O)[C@@H](N(C)C)[C@@H]3[C@@H](O)[C@@H]21 [doxycycline] | ~0.01 (≈ 0.0225 nM) | – | – | – | – |
| SV-T: wild-type SV40 large T antigen (protein, UniProt P03070 1-708, looked up) Large T antigen: MDKVLNREESLQLMDLLGLERSAWGNIPLMRKAYLKKCKEFHPDKGGDEEKMKKMNTLYKKMEDGVKYAHQPDFGGFWDATEIPTYGTDEWEQWWNAFNEENLFCSEEMPSSDDEATADSQHSTPPKKKRKVEDPKDFPSELLSFLSHAVFSNRTLACFAIYTTKEKAALLYKKIMEKYSVTFISRHNSYNHNILFFLTPHRHRVSAINNYAQKLCTFSFLICKGVNKEYLMYSALTRDPFSVIEESLPGGLKEHDFNPEEAEETKQVSWKLVTEYAMETKCDDVLLLLGMYLEFQYSFEMCLKCIKKEQPSHYKYHEKHYANAAIFADSKNQKTICQQAVDTVLAKKRVDSLQLTREQMLTNRFNDLLDRMDIMFGSTGSADIEEWMAGVAWLHCLLPKMDSVVYDFLKCMVYNIPKKRYWLFKGPIDSGKTTLAAALLELCGGKALNVNLPLDRLNFELGVAIDQFLVVFEDVKGTGGESRDLPSGQGINNLDNLRDYLDGSVKVNLEKKHLNKRTQIFPPGIVTMNEYSVPKTLQARFVKQIDFRPKDYLKHCLERSEFLLEKRIIQSGIALLLMLIWYRPVAEFAQSIQSRIVEWKERLDKEFSLSVYQKMKFNVAMGIGVLDWLRNSDDDDEDSQENADKNEDGGEKNMEDSGHETGIDSQSQGSFQAPQSSQSVHDHNQPYHICRGFTCFKKPPTPPPEPET | – | 100 | 0.10%±0.02% | 100 | 100 |
